How the values were obtained:
[1] = pH solubility profile of h[Gly2]GLP-2 (precipitation); type: physicochemical
Protocol: (§1) Based on pH solubility profiles, it was determined that a phosphate buffer provides optimal buffering capacity for GLP-2 peptides. […] L-histidine acts as a stabilizing amino acid that increases the length of time that the GLP-2 peptide remains intact prior to degradation.

[2] = Temperature profile / phase transition of h[Gly2]GLP-2; type: physicochemical
Protocol: It has also been discovered that Tween 80®, salt, and arginine are not suitable materials for producing a stable formulation for h[Gly2]GLP-2.
as §1

h[Gly2]GLP-2
pH at which the analog precipitated [1]: less than 5.5 | phase transition temperature ([2]; depending upon the salt concentration): 40-55 °C | behaviour in the presence of salt ([2]; in the presence of salt): becomes hydrophobic in the presence of salt | heat-induced and salt-dependent transition temperature ([2]; temperature profiles): about 40 °C

Source: US7056886B2, “GLP-2 formulations” (NPS Allelix, Corp., priority 1999, dated 2006)
